Test system: MS2 coat protein
Assay: apparent KD of MS2 coat protein; designed switch direction (-1 OFF switch, 1 ON switch): -1; higher = weaker reporter binding
Method in brief: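 The apparent KD reported per design is the median over clusters of curve fits to normalised cluster fluorescence. The RNA switches were transcribed on Illumina chips by stalled E. coli RNA polymerase. SNAP-549-labelled MS2 coat protein was titrated from 0.7 or 1.5 nM, doubling up to 3 µM, in Tris-HCl pH 7.5 buffer containing KCl, MgCl2, BSA, DTT, tRNA and Tween-20, with no input, 200 uM small-molecule ligand, or an oligonucleotide input.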

[1] = Eterna round: R95, input ligand: microRNA oligo, concentration not stated
[2] = input ligand: microRNA oligo, concentration not stated
[3] = Eterna round: R95, input ligand: FMN 200 uM
[4] = Eterna round: R95, input ligand: none

Row | Sequence | apparent KD of MS2 coat protein [1] | apparent KD of MS2 coat protein (input ligand: FMN 200 uM) | apparent KD of MS2 coat protein (input ligand: none) | apparent KD of MS2 coat protein [2] | apparent KD of MS2 coat protein [3] | apparent KD of MS2 coat protein [4]
1 | CCUCUACAUGAGGAUCACCCAUGUGAGGAUAUCUCGGAGCAACCACUUAAGGCGCUCCAGAGAAGGCACGUGUA [Erralaqu] (puzzle: Exclusion 1) | 19.5 nM | – | – | – | – | –
2 | CCUCUACAUGAGGAUCACCCAUGUGAGGAUAUGUUGACGAGCCAGAAAUGGCUGGUCAACAGAAGGCAUAUGUA [Exclusion 1 (Mod 2.1 solution 16 by Eternabot)] (Eterna round: R97, puzzle: Exclusion 1) | – | 43.7 nM | 23.7 nM | – | – | –
3 | CCUCUGUAAGGAUAUACGGAGACCACUGGAAUCAGUGGAAAGUAGAAGGUACAUGAGGAUCACCCAUGUGAGAA [Laveatisce] (Eterna round: R96, puzzle: Exclusion 4) | – | – | – | 67.9 nM | – | –
4 | CCUCUGUAAGGAUAUACGGAGACCACUGGAAUCAGUGGAAAGUAGAAGGUACAUGAGGAUCACCCAUGUGAGAA [Laveatisce] (puzzle: Exclusion 4) | 36.2 nM | – | – | – | 36.5 nM | 49.3 nM
5 | CCUCUGUGAGGAUAUUGGCAACACUGCACCCAAUAAAGCGCCGAGAAGGCACAUGAGGAUCACCCAUGUACGCA [Eternabot (L1) Solution 66] (Eterna round: R97, puzzle: Exclusion 4) | – | 22.4 nM | 18.4 nM | – | – | –
6 | CCUCUUGGGCAAGGAUAUCCUGCGCGGUUCCGGUUCGUGUCUGUCACAUGAGGAUCACCCAUGUGGGAGAAGGUGCCUGCGGUC [Design 78] (Eterna round: R96, puzzle: Exclusion NG 2) | – | – | – | 12 nM | – | –
7 | CCUUAUUCACAGGAUAUGCUCAUCUAAUGAUGAGCAGAAGGGUGGACAUGAGGAUCACCCAUGUUUAUCAAUGG [Omei Ex6 D5] (Eterna round: R97, puzzle: Exclusion 6) | – | 545 nM | 749 nM | – | – | –
8 | CCUUGUGUUGAGGAUAUGCGCCGGCUCGCUGGCGCAGAAGGCGGCACAUGAGGAUCACCCAUGUCAGUUCGCGG [salish99_ex6_r004_013] (Eterna round: R97, puzzle: Exclusion 6) | – | 426 nM | 116 nM | – | – | –
9 | CGAAGUAGAAACCGAUCCUACAUGAGGAUCACCCAUGUAGCAAGACGUGCACGCGAAGCUCGUCAGACUACCAGAAC [salish99_TOv1_r3_013] (puzzle: Sensor v3, turn-off variant 1) | 332 nM | – | – | – | 312 nM | 420 nM
10 | CGAGCUAAUGUGAGGAUAUACCUAUGGAUACAUAGGUAGAAGGCACAUGAGGAUCACCCAUGUCCUAUAGCUCG [jl-bmx4-4.55] (Eterna round: R97, puzzle: Brourd's mod of Exclusion 4) | – | 241 nM | 304 nM | – | – | –
11 | CGAGUGUAAGGAUAUUCGGCGCCAGGGAACGACCUGGCGUAGAAGAAGGUACAUGAGGAUCACCCAUGUGGUUA [Issobi] (puzzle: Exclusion 4) | 142 nM | – | – | – | – | –
12 | CGAUAAAUGACAGGAUAUUACGCUAAUUGGGACCCUUAACCGACAUGAGGAUCACCCAUGUUUUAUAAGAAGGGUCGUUUGUCA [Eternabot solution 47] (Eterna round: R96, puzzle: Exclusion NG 2) | – | 21 nM | 13.2 nM | 11.2 nM | – | –
13 | CGAUAUUAUGUCAGGAUAUACAUUGCGAAAGCAAUGUAGAAGGGACAUGAGGAUCACCCAUGUCCUAACUAUCG [Omei A 2] (puzzle: Brourd's mod of Exclusion 4) | 12.9 nM | – | – | – | – | –
14 | CGAUGCUCGAGUCGACAUGAGGAUCACCCAUGUAGAGUUAGCGAGGAUAUCGGAGACACAUAGUAUGAGAAGGCGCGAACCUGA [Ex NG3 #19] (Eterna round: R96, puzzle: Exclusion NG 3) | – | 36.2 nM | 16.7 nM | 12.3 nM | – | –
15 | CGAUGUGGAGUGAGGAUAUCGUGUUCGAAAGAACGUGAGAAGGCACAUGAGGAUCACCCAUGUGAUACAUGUCG [Omei Ex4B A16] (Eterna round: R97, puzzle: Brourd's mod of Exclusion 4) | – | 92.2 nM | 24.6 nM | – | – | –
16 | CGCAGACAUGAGGAUCACCCAUGUCAGGAUAUACCUCAUAGCACCAGCUUAUGUAAGGGUAGAAGGGACUUGGA [Eternabot (L1) Solution 81] (Eterna round: R97, puzzle: Exclusion 1) | – | 86.1 nM | 56.8 nM | – | – | –

Row | Sequence | apparent KD of MS2 coat protein [1] | apparent KD of MS2 coat protein (input ligand: FMN 200 uM) | apparent KD of MS2 coat protein (input ligand: none) | apparent KD of MS2 coat protein [2] | apparent KD of MS2 coat protein [3] | apparent KD of MS2 coat protein [4]
17 | CGCCUCAGAGGAUAUACUACGGUUUCCUCAUGAUGCGGCCAACAUGAGGAUCACCCAUGUAGAAGGCUGAGAAA [EX2 A.5] (Eterna round: R97, puzzle: Exclusion 2) | – | 17.3 nM | 52.2 nM | – | – | –
18 | CGCCUCAGCACAUGAGGAUCACCCAUGUACAAAAGUCCCAGGGAGGAUAUCUGCUGGUUGACUAGAGAGAAGGCCCAUACUAAC [Eternabot solution 45] (Eterna round: R96, puzzle: Exclusion NG 3) | – | 42.6 nM | 45 nM | 36.6 nM | – | –
19 | CGCCUGGGAGGAUAUCCAAUAUAUGACAUGAGGAUCACCCAUGUUUCCACUCGUACCUCCGGAGAAGGCCCGGCGC [Ex5 #30] (Eterna round: R97, puzzle: Exclusion 5) | – | 23.1 nM | 25.2 nM | – | – | –
20 | CGCUAGUCAGGAUAUACGAACAUGUCAAAAGACGUGAAGGGACAUGAGGAUCACCCAUGUAGAAGGGACUAGCC [salish99_ex2_r3_011] (puzzle: Exclusion 2) | 21.3 nM | – | – | – | 111 nM | 25.8 nM
21 | CGCUCACAUGAGGAUCACCCAUGUCAGGAUAUCUCAGUGCAUCCACACGGACGCAUCAAGAGAAGGGACAAAAC [Vinxlusion 3 - Jieux - Exclusion 1] (Eterna round: R97, puzzle: Exclusion 1) | – | 189 nM | 112 nM | – | – | –
22 | CGCUGUUGAGGAUAUGGGCGUGGUUACAUGAGGAUCACCCAUGUGGUGUCGCGCGUGGGUCCAGAAGGCGGCGGUG [-31.8, -28.5 kcal, 16% A] (Eterna round: R97, puzzle: Exclusion 5) | – | 33.5 nM | 17.5 nM | – | – | –
23 | CGGAGCGGCUUAGGAUAUGCUGGAAUAUCCCUGCUCCUCAGAACAUGAGGAUCACCCAUGUACUGGCAGAAGGGAGCUGCAGAG [Inxeedsoxe] (Eterna round: R96, puzzle: Exclusion NG 2) | – | 21.8 nM | 18.7 nM | 15.4 nM | – | –
24 | CGGCACCGAGGAUAUACAUGAGGAUCACCCAUGUUUGUUGGGCCCUUAAGAUCUACGUGUAGAAGGUGGGUCGA [Edaribi] (Eterna round: R96, puzzle: Exclusion 3) | – | 241 nM | 173 nM | 147 nM | – | –
25 | CGGGUGCGGUGAGGAUAUCCGAAAGGAAGUGUAGGAGAAGGCACCAAGAACAUGAGGAUCACCCAUGUGACCUCAUAAGCCCGG [PowerStrip EXNG 1.9] (Eterna round: R96, puzzle: Exclusion NG 1) | – | 34.9 nM | 406 nM | 254 nM | – | –
26 | CGGUAACAUGAGGAUCACCCAUGUGAGGAUAUCGUACGUUCGUCGAUAGACGAUCGUACGAGAAGGCAUGACCG [Mat - Exclusion 1 - Eli Mod - D33] (Eterna round: R97, puzzle: Exclusion 1) | – | 21.4 nM | 43.9 nM | – | – | –
27 | CGGUACUGAGGAUAUACAUGAGGAUCACCCAUGUGUUCAAGCUAGCGUACUGGCAUUAGUAGAAGGCGGUGCUG [JL-ex3-3.21 Brourd mod] (puzzle: Exclusion 3) | 14.6 nM | – | – | – | 26.7 nM | 16.9 nM
28 | CGGUCAUGAGGAUAUCGAGGUUAGUACAUGAGGAUCACCCAUGUUAUCCAGGUGUCGGUUCGAGAAGGCAUGUCCG [LRO-Ex5-12] (puzzle: Exclusion 5) | 287 nM | – | – | – | – | –
29 | CGGUGACAUGAGGAUCACCCAUGUUAGGAUAUGACUUCGUACGCGAACAGGUAUGGAGUCAGAAGGAGCAUCCA [Eternabot (Original) Solution 45] (Eterna round: R97, puzzle: Exclusion 1) | – | 80.6 nM | 38.4 nM | – | – | –
30 | CGGUGCUCGUGGAAACAUGAGGAUCACCCAUGUUGAGUUAGCGAGGAUAUCGGUAACACAUAUCACGAGAAGGCGCGAACCAGA [Ex NG3 #31] (Eterna round: R96, puzzle: Exclusion NG 3) | – | 23.3 nM | 16 nM | 11.9 nM | – | –
31 | CGGUGCUGAGGAUAUACAUGAGGAUCACCCAUGUGUUCCGGCUAGCUGACUGGCGCUUGUAGAAGGCAGUACUG [JL-ex3-2.11 Brourd mod] (puzzle: Exclusion 3) | 16.3 nM | – | – | – | – | –

— the supplement of paper PMC9170038
